# Patent US20180066015A1, “INHIBITORS OF GROWTH FACTOR ACTIVATION ENZYMES” (Washington University, published 2018)
# Several values for one entry are separate records, joined by “and”; a condition that tells them apart may be missing. Equal entries are not always repeated. Where two headings read alike, the source gives them in different places. Positions of bridges follow the written chain, without caps; N, C: chain ends. Primed or numbered codes have the meaning given here. No end group written: not given here. *: point of attachment. kbt‑6‑CONH‑4‑piperidine = ketobenzothiazole-6-CONH-4-piperidine (Kbt-4-piperidinylamide), O=C(NC1CCNCC1)c1ccc2nc(*)sc2c1; kbt‑6‑CONH‑4‑pyridine = ketobenzothiazole-6-CONH-4-pyridine (Kbt-4-pyridinylamide), O=C(Nc1ccncc1)c1ccc2nc(*)sc2c1; kbt‑6‑CONH‑Bn = ketobenzothiazole-6-CONH-benzyl (Kbt-benzylamide), O=C(NCc1ccccc1)c1ccc2nc(*)sc2c1; kbt‑6‑COOH = ketobenzothiazole-6-COOH, O=C(O)c1ccc2nc(*)sc2c1; ketothiazole = C-terminal ketothiazole (kt), c1csc(*)n1; kbt = C-terminal ketobenzothiazole, c1ccc2sc(*)nc2c1; Kbt = ketobenzothiazole, c1ccc2sc(*)nc2c1; kt = C-terminal ketothiazole, c1csc(*)n1; kt″ = ketothiazole, c1csc(*)n1
# T1: matriptase (Charles Craik, UCSF), recombinant (Homo sapiens (Human), UniProt Q9Y5Y6)
# T1 sequence: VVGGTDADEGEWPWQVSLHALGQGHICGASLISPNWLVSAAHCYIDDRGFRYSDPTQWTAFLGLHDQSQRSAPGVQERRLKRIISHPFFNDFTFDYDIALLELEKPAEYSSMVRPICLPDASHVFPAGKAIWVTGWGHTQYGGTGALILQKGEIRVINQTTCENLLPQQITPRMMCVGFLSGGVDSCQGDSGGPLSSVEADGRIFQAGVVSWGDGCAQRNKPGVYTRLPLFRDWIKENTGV
# T2: matriptase (Charles Craik, UCSF), recombinant (Homo sapiens (Human)) (UniProt Q9Y5Y6)
# T2 sequence: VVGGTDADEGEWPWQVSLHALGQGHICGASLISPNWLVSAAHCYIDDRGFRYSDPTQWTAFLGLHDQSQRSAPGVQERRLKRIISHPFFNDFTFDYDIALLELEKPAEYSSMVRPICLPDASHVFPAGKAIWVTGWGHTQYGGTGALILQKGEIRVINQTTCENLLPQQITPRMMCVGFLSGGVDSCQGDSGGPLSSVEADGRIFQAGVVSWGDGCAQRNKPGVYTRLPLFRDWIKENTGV
# Columns and labels:
# [1] = biological target: Hepatocyte Growth Factor Activator (HGFA) serine protease domain, N-terminal His-tag, recombinant (Homo sapiens (Human)) (UniProt Q04756); assay: fluorogenic inhibition assay
# [2] = biological target: T3, Recombinant human hepsin (4776-SE-010, R&D Systems), activated (human, UniProt P05981); assay: fluorogenic inhibition assay
# Protocol: (§1) Inhibitors (11-pt serial dilutions, 0-20 μM final concentration in reaction) were serially diluted in DMSO (2% DMSO final concentration) and then mixed with either recombinant serine protease domain of HGFA [Z. Han, P. K. Harris, D. E. Jones, R. Chugani, T. Kim, M. Agarwal, W. Shen, S. A. Wildman, J. W. Janetka, Acs Med Chem Lett 2014, 5, 1219-1224], matriptase (Charles Craik, UCSF) or hepsin* (#4776-SE-010, R&D Systems, Minneapolis, Minn.) in black 384 well plates (Corning #3575. Corning, N.Y.). […] The final substrate concentrations for all assays were at the Kₘ for the respective enzymes. Changes in fluorescence (excitation at 380 nm and emission at 460 nm) were measured at room temperature over time in a Biotek Synergy 2 plate reader (Winnoski, Vt.). Using GraphPad Prism version 6.04 software program, (GraphPad Software, San Diego, Calif., www.graphpad.com), a four parameter curve fit was used to determine the inhibitor IC₅₀s from a plot of the mean reaction velocity versus the inhibitor concentration. The IC₅₀ values represent the average of three separate experimental determinations.
# (§2) Fluorescent inhibitor and chromogenic proteolytic assays were performed in general accordance with the procedures described in Example 4 for compounds prepared in Examples 5 and 6.
# [3] = biological target: T1, matriptase (Charles Craik, UCSF), …; assay: fluorogenic inhibition assay
# Protocol: as §1, §2
# [4] = biological target: Trypsin; assay: selectivity inhibition assay
# [5] = biological target: recombinant thrombin; assay: selectivity inhibition assay
# [6] = biological target: Factor Xa; assay: selectivity inhibition assay
# [7] = biological target: T3, Recombinant human hepsin (4776-SE-010, …); assay: fluorogenic inhibition assay; remark: listed apart in the source
# Protocol: as §1
# [8] = biological target: Hepatocyte Growth Factor Activator (HGFA) serine protease domain, N-terminal His-tag, recombinant (Homo sapiens (Human)) (UniProt Q04756)
# [9] = biological target: T1, matriptase (Charles Craik, UCSF), …; assay: fluorogenic inhibition assay; remark: listed apart in the source
# Protocol: as §1
# [10] = biological target: Recombinant human hepsin (4776-SE-010, R&D Systems), activated (human) (UniProt P05981)
# [11] = biological target: T2, matriptase (Charles Craik, UCSF), recombinant (Homo sapiens (Human))
Binder,Ki [1] [nM],Ki [2] [nM],Ki [3] [nM],Ki [4] [nM],Ki [5] [nM],Ki [6] [nM],Ki [7],IC50 of enzyme inhibition [8],Ki [9],IC50 of enzyme inhibition [10] [nM],IC50 of enzyme inhibition [11] [nM]
Ac-SKLR-{kbt‑6‑CONH‑4‑pyridine} [Ac-SKLR(SEQ ID NO: 10)-Kbt-4-pyridinylamide],31.8,0.14,3.95,1.06,3430,221,–,–,–,–,–
Ac-KRLR-Kbt (not fully specified) [Ac-KRLR(SEQ ID NO: 8)-Kbt-5-COOH],6.07,0.37,5.14,1.06,1940,20.2,–,–,–,–,–
H-Trp-Leu-Arg-{kbt-Val-NH2} [H-WLR-kbt-Val-NH2],73.9,1.31,49.2,0.01,41,159,–,–,–,–,–
Ac-SKLR (not fully specified (C-terminus)) [Ac-SKLR(SEQ ID NO: 10)-Kbt-Trp-NH2],15.8,0.098,3.74,0.02,1230,163,–,–,–,–,–
Ac-Leu-Leu-Arg-kt [Ac-LLR-kt],253,–,–,–,–,–,2.29 nM,1480 nM,–,–,–
Ac-SKLR-kbt (SMILES CC(=O)N[C@@H](CO)C(=O)N[C@@H](CCCCN)C(=O)N[C@@H](CC(C)C)C(=O)N[C@@H](CCCNC(=N)N)C(=O)c1nc2ccccc2s1) [Ac-SKLR(SEQ ID NO: 10)-Kbt],33,0.16,3.05,0.16,> 20000,1900,–,–,–,–,–
Ac-SKLR-{kbt‑6‑CONH‑Bn} [Ac-SKLR(SEQ ID NO: 10)-Kbt-benzylamide],9.1,0.8,0.36,0.05,2470,190,–,–,–,–,–
Ac-SQLR-kt (SMILES CC(=O)N[C@@H](CO)C(=O)N[C@@H](CCC(N)=O)C(=O)N[C@@H](CC(C)C)C(=O)N[C@@H](CCCNC(=N)N)C(=O)c1nccs1) [Ac-SQLR(SEQ ID NO: 7)-kt],182,–,–,–,–,–,0.34 nM,180 nM,9.2 nM,–,–
Ac-SKLR-{kbt‑6‑COOH} (SMILES CC(=O)N[C@@H](CO)C(=O)N[C@@H](CCCCN)C(=O)N[C@@H](CC(C)C)C(=O)N[C@@H](CCCNC(=N)N)C(=O)c1nc2ccc(C(=O)O)cc2s1) [Ac-SKLR(SEQ ID NO: 10)-Kbt-COOH],132,0.173,54.8,0.03,> 2000,1250,–,–,–,–,–
Ac-SKLR-{kbt‑6‑CONH‑4‑piperidine} [Ac-SKLR(SEQ ID NO: 10)-Kbt-4-piperidinylamide],7.7,0.2,1.28,0.41,2950,447,–,–,–,–,–
Ac-KRLR-{Kbt-Benzyl‑4‑COOMe} [Ac-KRLR(SEQ ID NO: 8)-kbt-Benzyl-4-COOMe],5.85,0.26,0.98,0.05,20.9,9,–,–,–,–,–
Ac-RKLR-kt (SMILES CC(=O)N[C@@H](CCCNC(=N)N)C(=O)N[C@@H](CCCCN)C(=O)N[C@@H](CC(C)C)C(=O)N[C@@H](CCCNC(=N)N)C(=O)c1nccs1) [Ac-RKLR(SEQ ID NO: 18)-kt],17,–,–,–,–,–,0.47 nM,370 nM,0.83 nM,–,–
H-Arg-Leu-Arg-{kbt-Val-NH2} [H-RLR-kbt-Val-NH2],12.5,0.44,4.2,0.31,548,18,–,–,–,–,–
Ac-TKLR-kt (SMILES CC(=O)N[C@H](C(=O)N[C@@H](CCCCN)C(=O)N[C@@H](CC(C)C)C(=O)N[C@@H](CCCNC(=N)N)C(=O)c1nccs1)[C@@H](C)O) [Ac-TKLR(SEQ ID NO: 16)-kt],103,–,–,–,–,–,0.61 nM,567 nM,8.7 nM,–,–
Ac-FLFR-Kbt (SMILES CC(=O)N[C@@H](Cc1ccccc1)C(=O)N[C@@H](CC(C)C)C(=O)N[C@@H](Cc1ccccc1)C(=O)N[C@@H](CCCNC(=N)N)C(=O)c1nc2ccccc2s1) [Ac-FLFR(SEQ ID NO: 19)-Kbt],114,1.44,3.6,0.27,> 20000,13.1,–,–,–,–,–
Ac-NKLR-kt (SMILES CC(=O)N[C@@H](CC(N)=O)C(=O)N[C@@H](CCCCN)C(=O)N[C@@H](CC(C)C)C(=O)N[C@@H](CCCNC(=N)N)C(=O)c1nccs1) [Ac-NKLR(SEQ ID NO: 14)-kt],79,–,–,–,–,–,1.4 nM and 1.41 nM,397 nM and 400 nM,12 nM and 12.4 nM,–,–
Ac-KRLR-Kbt (SMILES CC(=O)N[C@@H](CCCCN)C(=O)N[C@@H](CCCNC(=N)N)C(=O)N[C@@H](CC(C)C)C(=O)N[C@@H](CCCNC(=N)N)C(=O)c1nc2ccccc2s1) [Ac-KRLR(SEQ ID NO: 8)-Kbt],6,0.112,0.54,0.82,> 20000,91.9,–,–,–,–,–
H-WRLR-kbt (SMILES CC(C)C[C@H](NC(=O)[C@H](CCCNC(=N)N)NC(=O)[C@@H](N)Cc1c[nH]c2ccccc12)C(=O)N[C@@H](CCCNC(=N)N)C(=O)c1nc2ccccc2s1) [H-WRLR(SEQ ID NO: 9)-Kbt],8.75,0.12,3.79,0.96,4890,2.4,–,–,–,–,–
Ac-KHLR-{kt″} (SMILES CC(=O)N[C@@H](CCCCN)C(=O)N[C@@H](Cc1c[nH]cn1)C(=O)N[C@@H](CC(C)C)C(=O)N[C@@H](CCCNC(=N)N)C(=O)c1nccs1) [Ac-KHLR(SEQ ID NO: 2)-kt],96,–,–,–,–,–,0.41 nM,650 nM,22.3 nM,–,–
Ac-SKLR-{kbt‑6‑CO-Val-NH2} [Ac-SKLR(SEQ ID NO: 10)-Kbt-Val-NH2],13,0.19,10.3,0.34,4500,385,–,–,–,–,–
Ac-KRLR-{Kbt-Benzyl‑3‑COOMe} [Ac-KRLR(SEQ ID NO: 8)-kbt-Benzyl-3-COOMe],7.76,0.36,1.8,0.04,85.4,14,–,–,–,–,–
Ac-SKLR (not fully specified (C-terminus)) [Ac-SKLR(SEQ ID NO: 10)-Kbt-Phe-NH2],17.3,0.14,6.26,0.27,3640,544,–,–,–,–,–
Ac-KFLR-ketothiazole (SMILES CC(=O)N[C@@H](CCCCN)C(=O)N[C@@H](Cc1ccccc1)C(=O)N[C@@H](CC(C)C)C(=O)N[C@@H](CCCNC(=N)N)C(=O)c1nccs1) [Ac-KFLR(SEQ ID NO: 5)-kt],80,–,–,–,–,–,–,330 nM,–,22,35
LLR (N-terminal acetyl; C-terminus printed as -H) [Leupeptin (Ac-LLR-H)],188,–,–,–,–,–,61 nM,535 nM,696 nM,256,1150
H-KQDRR-kt (lactam 1-3; also: 3:1 D/L diastereomers at the alpha keto carbon) [H-cyclo(KQD)RR-kt],5940,–,–,–,–,–,–,–,0.71 nM,–,–
